The record followed here is US9051572.

Data set [1] deals with in vitro translated [35S] TAp73δ (UniProt O15350).
The target of data set [2] is in vitro translated [35S] TAp73α (UniProt O15350).
The target in data set [3] is in vitro translated [35S] p53 (UniProt P04637).
For data set [4], the target named is Purified recombinant ubiquitin containing an amino terminal FLAG sequence (UniProt P0CG48).

As to “GST-Itch, from Thr 277 to Glu 903 (lacking the N-terminal C2 domain)”, the “in vitro ubiquitination (higher molecular weight [35S] species on SDS-PAGE)” value is “The inability of Itch to ubiquitinate p738 and p53” in data set [1]; “protein was ubiquitinated, as shown by the appearance of discrete higher molecular weight” in data set [2]; “The inability of Itch to ubiquitinate p738 and p53” in data set [3]. For the same substance, in data set [4], the “ELISA for self-ubiquitination of Itch, OD450 signal” value is reported as “an assay OD450 signal of 1.972 was obtained”.
In the case of “GST-Itch MUT (C830A), Thr 277 to Glu 903”, the “in vitro ubiquitination (higher molecular weight [35S] species on SDS-PAGE)” value in data set [2] is “this mutant, that retains the ability to bind TAp73 ... lost the ability to promote TAp73 ... ubiquitination”. Moreover, the “ELISA for self-ubiquitination of Itch, OD450 signal” value in data set [4] was “a background signal of 0.093 was obtained”.
